In the Immune Epitope Database (IEDB):

Tests used:
HLA-A*24:03 = assay: IEDB peptide-MHC binding, purified MHC/direct/fluorescence; filed as Kd, often an IC50 or EC50 that approximates it; ≥ and ≤ were set here for values at or beyond the usual limits of such assays
HLA-A*69:01 = assay: as above
HLA-B*35:01 = assay: as above
HLA-B*44:02 = assay: as above
HLA-B*07:02 = assay: as above
HLA-B*58:01 = assay: as above
HLA-A*02:01 = assay: as above
HLA-A*26:01 = assay: as above
HLA-A*01:01 [1] = assay: as above
HLA-A*30:01 = assay: as above
HLA-B*08:01 = assay: as above
HLA-B*40:01 = assay: as above
HLA-B*27:05 = assay: as above
HLA-A*03:01 = assay: as above
HLA-B*15:01 [2] = assay: as above
HLA-A*26:02 = assay: as above
HLA-B*48:01 = assay: as above
HLA-B*57:01 [3] = assay: as above
HLA-A*11:01 = assay: as above
HLA-A*31:01 = assay: as above
HLA-A*68:02 [4] = assay: as above
HLA-B*39:01 = assay: as above
HLA-A*26:03 = assay: as above
HLA-B*15:17 [5] = assay: as above
HLA-B*18:01 = assay: as above
HLA-B*73:01 = assay: as above; settings: source organism: Vibrio vulnificus YJ016
HLA-B*46:01 = assay: as above; settings: source organism: Giardia lamblia ATCC 50803
HLA-B*08:02 = assay: as above; settings: source organism: Giardia lamblia ATCC 50803
HLA-B*57:01 [6] = assay: IEDB peptide-MHC binding, purified MHC/competitive/fluorescence; filed as Kd, often an IC50 or EC50 that approximates it; ≥ and ≤ were set here for values at or beyond the usual limits of such assays; settings: source organism: Giardia lamblia ATCC 50803
HLA-A*01:01 [7] = assay: as above; settings: source organism: Giardia lamblia ATCC 50803
HLA-A*68:02 [8] = assay: as above; settings: source organism: Giardia lamblia ATCC 50803
HLA-B*15:01 [9] = assay: as above; settings: source organism: Giardia lamblia ATCC 50803
HLA-B*15:17 [10] = assay: as above; settings: source organism: Giardia lamblia ATCC 50803
[11] = source organism: Giardia intestinalis
[12] = source organism: Influenza A virus H3N2
[13] = source organism: Influenza A virus (A/swine/Italy/809/1989(H3N2))
[14] = source organism: Giardia lamblia ATCC 50803
[15] = source organism: Vibrio vulnificus YJ016
[16] = source organism: Escherichia coli O157:H7
[17] = source organism: Rickettsia prowazekii

Measured: Kd

DYAMHGTVF
0.0621 µM: HLA-B*35:01; [11]
3.8 µM: HLA-B*15:01 [2]; [11]
8.71 µM: HLA-B*07:02; [11]
≥ 10 µM: HLA-B*58:01; [11]
2.36 µM: HLA-A*24:03; [11]
≥ 58.5 µM: HLA-A*30:01; [11]
≥ 20 µM: HLA-A*69:01; [11] | HLA-B*44:02; [11] | HLA-A*02:01; [11] | HLA-A*26:01; [11] | HLA-A*01:01 [1]; [11] | HLA-B*40:01; [11] | HLA-B*27:05; [11] | HLA-A*03:01; [11]
14.6 µM: HLA-B*08:01; [11]

EEIRRIWRQ
9.02 µM: HLA-B*18:01; [13]
≥ 20 µM: HLA-A*26:02; [12] | HLA-B*48:01; [13] | HLA-A*69:01; [13] | HLA-B*44:02; [13] | HLA-B*07:02; [13] | HLA-B*58:01; [13] | HLA-B*57:01 [3]; [13] | HLA-A*02:01; [13] | HLA-A*11:01; [13] | HLA-A*01:01 [1]; [13] | HLA-A*31:01; [13] | HLA-A*68:02 [4]; [13] | HLA-B*39:01; [12] | HLA-A*26:03; [12] | HLA-B*40:01; [13] | HLA-B*27:05; [13] | HLA-A*03:01; [13] | HLA-B*15:01 [2]; [13] | HLA-B*15:17 [5]; [13]

FMGRLGPEY
0.14 µM: HLA-B*15:01 [2]; [14]
0.117 µM: HLA-B*35:01; [14]
≥ 5 µM: HLA-A*24:03; [14]
≥ 20 µM: HLA-A*69:01; [14] | HLA-B*44:02; [14] | HLA-B*58:01; [14] | HLA-A*02:01; [14] | HLA-A*11:01; [14] | HLA-A*26:01; [14] | HLA-A*31:01; [14] | HLA-B*08:01; [14] | HLA-B*40:01; [14] | HLA-B*27:05; [14] | HLA-A*03:01; [14]
16.1 µM: HLA-A*30:01; [14]
4.09 µM: HLA-A*01:01 [1]; [14]

KRFYQTVGF
≥ 20 µM: HLA-A*26:02; [15] | HLA-B*48:01; [15] | HLA-A*69:01; [15] | HLA-B*07:02; [15] | HLA-B*58:01; [15] | HLA-B*57:01 [3]; [15] | HLA-A*02:01; [15] | HLA-A*11:01; [15] | HLA-A*01:01 [1]; [15] | HLA-A*31:01; [15] | HLA-A*68:02 [4]; [15] | HLA-B*39:01; [15] | HLA-B*08:01; [15] | HLA-A*26:03; [15] | HLA-A*03:01; [15] | HLA-B*15:01 [2]; [15] | HLA-B*15:17 [5]; [15] | HLA-B*18:01; [15]
0.0895 µM: HLA-B*27:05; [15]
4 µM: HLA-B*73:01

KSNRIPFLY
0.007 µM: HLA-A*11:01; [14]
0.203 µM: HLA-A*01:01 [7]
2.37 µM: HLA-A*31:01; [14]
0.01 µM: HLA-B*15:17 [10]
0.002 µM: HLA-B*58:01; [14]
0.212 µM: HLA-B*15:01 [9]
≥ 20 µM: HLA-A*26:02; [14] | HLA-B*48:01; [14] | HLA-B*07:02; [14] | HLA-B*46:01 | HLA-A*02:01; [14] | HLA-A*26:01; [14] | HLA-B*08:01; [14] | HLA-A*26:03; [14] | HLA-B*40:01; [14] | HLA-B*27:05; [14] | HLA-B*18:01; [14] | HLA-B*08:02 | HLA-A*68:02 [8]
0.022 µM: HLA-A*03:01; [14]
0.243 µM: HLA-B*57:01 [6]

PSSKPDWFY
0.0197 µM: HLA-A*01:01 [1]; [16]
15.2 µM: HLA-B*15:01 [2]; [16]
1.04 µM: HLA-B*35:01; [16]
≥ 20 µM: HLA-A*24:03; [16] | HLA-A*69:01; [16] | HLA-B*44:02; [16] | HLA-B*07:02; [16] | HLA-B*58:01; [16] | HLA-A*02:01; [16] | HLA-A*11:01; [16] | HLA-A*26:01; [16] | HLA-A*31:01; [16] | HLA-B*08:01; [16] | HLA-B*40:01; [16] | HLA-B*27:05; [16] | HLA-A*03:01; [16]

QFAGGSFDF
≥ 10 µM: HLA-A*11:01; [17]
0.0416 µM: HLA-B*58:01; [17]
≥ 20 µM: HLA-A*69:01; [17] | HLA-B*44:02; [17] | HLA-B*07:02; [17] | HLA-A*02:01; [17] | HLA-A*26:01; [17] | HLA-A*01:01 [1]; [17] | HLA-B*08:01; [17] | HLA-B*40:01; [17] | HLA-A*03:01; [17]
0.336 µM: HLA-A*24:03; [17]
0.0141 µM: HLA-B*35:01; [17]
0.35 µM: HLA-B*15:01 [2]; [17]
